Results reported in publication PMC9818449.

Target: VN-HOXA9 (human) (UniProt P31269)
Assay: split reporter (BiFC, NanoBiT); individual BiFC in live HEK293T cells: plix-VN-HOXA9, plix-CC-ORF and plix-mCherry co-transfected, 18 h with doxycycline 100 ng/mL, confocal imaging; HOXA9/PBX1 as calibrator

UniProt P31269, sequence (P31269 whole entry): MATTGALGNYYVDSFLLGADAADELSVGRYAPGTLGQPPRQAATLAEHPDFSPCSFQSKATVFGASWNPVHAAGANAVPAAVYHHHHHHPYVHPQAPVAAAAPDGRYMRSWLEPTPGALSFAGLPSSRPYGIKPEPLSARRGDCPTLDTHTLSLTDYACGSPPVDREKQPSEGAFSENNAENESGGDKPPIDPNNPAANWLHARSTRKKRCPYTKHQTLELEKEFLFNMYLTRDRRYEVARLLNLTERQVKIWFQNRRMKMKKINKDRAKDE

- BiFC fluorescence as percent of HOXA9/PBX1 BiFC: < 15%
Substance: CC-C6orf201 (from UniProt B3KW47 1-115) (natural protein)
